The text below walks through data of patent US20200319204A1.

For test [1], the target named is semisynthetic H3K36me3 nucleosome (internal standard) (human) (UniProt Q71DI3). The test can be described thus: ICeChIP-qPCR, capture of barcoded nucleosome standards doped into mESC nucleosomes.
Test [2] addresses semisynthetic H3K4me3 nucleosome (internal standard ladder) (human) (UniProt Q71DI3). The test is described as above.
The target in test [3] is unmodified nucleosome (internal standard) (human) (UniProt Q71DI3). Described as above.
The target in test [4] is semisynthetic H3K27me3 nucleosome (internal standard ladder) (human) (UniProt Q71DI3). The test can be described thus: multi-standard ICeChIP-seq, six nucleosome ladders doped equimolar into mESC nuclei.
The target of test [5] is semisynthetic H3K9me3 nucleosome (internal standard ladder) (human) (UniProt Q71DI3). Described as above.

Regarding H3K4me3 antibody (Active Motif AM39159), the enrichment (internal standard, ICeChIP-qPCR) in test [1] was determined as 2.8; in test [2], 81; in test [3] it was 1.9. The apparent specificity (on target signal against H3K36me3 nucleosome) in test [2] came out at 30 fold.

With “H3K9me3 antibody M309M3-A (Hattori et al., 2013)”, the percent of the on-target signal in test [4] turned out to be 10%.

Take H3K27me3 antibody (Millipore 07-449): the percent of the on-target signal in test [5] is 26%.
